Results taken from the Human Domainome abundance scans (Beltran et al. 2025).

B1: Death-inducer obliterator 1, residues 263 to 321; numbered along this chain, Q9BTC0 (parent)
chain: GYDPNALYCICRQPHNNRFMICCDRCEEWFHGDCVGISEARGRLLERNGEDYICPNCTI

Variants of: B1
Test: abundance fitness (aPCA) (normalised: wild type 0, dead -1); higher = more abundant; growth selection in yeast, the domain comes from the species named
Settings: Homo sapiens

Abundance fitness: each site, then its substitutions
D3: G -0.243; S 0.174; Y 0.002; C -0.048; W -0.163; N 0.155; P 0.135; H 0.111; I -0.007; K 0.123; V -0.177; M 0.199; A -0.735; E 0.043; F 0.025; R -0.049; T 0.023; Q -0.004; L -0.024
A6: S -0.511; K -0.412; L -0.33; V -0.066; I -0.279; G -0.306; T -0.07; W -0.569; P -0.471; N 0.041; Y -0.806; D -0.434; Q -0.105; M 0.102; R -0.419; F -0.198; E -0.328
I10: W -0.169; L -0.105; N 0.011; M 0.035; T 0.017; D -0.418; K -0.064; A -0.084; Y -0.449; V -0.116; G -0.217; S 0.018; Q -0.182; E -0.143; H 0.105
C9: F -0.659; W -0.543; R -0.534; P -0.877; E -0.664; V -0.552; T -0.743; A -0.636; Q -0.495; K -1; N -1.01; I -0.823; L -0.813; S -0.859; G -0.535; M -0.606; Y -0.763
L7: E 0.032; I 0.106; P -0.119; G 0.086; C -0.062; T -0.006; H 0.119; Y 0.002; N 0.009; Q 0.026; F 0.042; W -0.055; D -0.415; M 0.1; R 0.008; K -0.012
R18: S 0.104; F -0.24; Q 0.042; H 0.112; N -0.168; Y 0.011; M 0.139; D -0.167; W -0.16; K 0.009; I -0.215; C -0.047; A -0.073; P -0.34; E -0.023; V 0.03; G 0.105
M20: C -0.209; L -0.037; E -0.403; W -0.323; A -0.343; I 0.045; Q -0.077; V -0.077; G -0.023; S 0.002; F -0.216; R -0.07; T 0.053; D -0.559; P -0.519
G1: F 0.058; R -0.134; V 0.323; C 0.138; Q -0.167; D 0.181; L 0.266; M -0.144; S 0.199; W -0.336; Y 0.132; I 0.16; P -0.104; N 0.109
C11: R -0.861; I -0.785; Q -0.609; E -0.622; D -0.381; S -0.92; T -0.747; L -0.861; W -0.953; P -0.999; N -0.708; M -0.71; G -1.15; F -0.724
N17: I -0.142; H 0.008; A -0.03; W -0.317; G 0.032; T -0.07; F -0.182; D -0.148; Y -0.086; P -0.179; Q 0.181; V -0.374; L -0.05; K 0.023; S -0.111; M -0.043; C -0.117
N16: D -0.049; W -0.072; F -0.184; Q 0.027; L -0.064; K -0.019; V -0.045; E 0.072; T 0.058; P -0.218; I -0.109; G 0.152; S -0.119; M 0.065; C -0.211; H 0.108; Y -0.399
Q13: T 0.105; D 0.02; G -0.233; Y -0.161; K -0.054; P -0.692; A 0.183; I -0.111; R -0.085; S -0.136; F -0.159; M 0.149; N -0.061; V -0.068; E 0.072; L -0.089; H -0.159
N5: C -0.497; L -0.331; E -0.184; H -0.433; I -0.242; K -0.23; M -0.113; A -0.413; Y -0.623; G -0.273; P -0.796; S -0.259; F -0.189; W -0.793; Q -0.112; T -0.319; R -0.211; V -0.186; D 0.004
Y8: E 0.038; K 0.115; F 0.035; W -0.154; H 0.03; P 0.059; Q -0.019; T 0.264; C 0.069; V 0.041; M 0.07; D 0.135; L 0.048; N 0.192; I 0.165; S 0.125; R 0.115
P14: V 0.07; I -0.028; N -0.003; Q 0.079; W -0.496; F -0.084; A 0.006; E 0.141; T 0.031; M 0.004; S 0.035; Y 0.111; H -0.04; G 0.018; K 0.201; L 0.022; D -0.284
H15: Y -0.025; I -0.039; G 0.017; A -0.088; F -0.414; E 0.029; M 0.138; C 0.018; N 0.051; D 0.073; K -0.121; W -0.037; Q -0.148; L 0.058; P -0.126; V 0.076; S 0.164
F19: Y 0.058; E -0.291; L -0.016; Q 0.048; W -0.016; P 0.088; K -0.166; N -0.341; R -0.145; A -0.182; V -0.166; S -0.143; I -0.028; G -0.224; M -0.265; H 0.062
R12: Q -0.186; T -0.105; F -0.207; H 0.019; K 0.148; W -0.284; L -0.11; M -0.305; C -0.216; A -0.14; I -0.48; E -0.04; P -0.463; Y -0.296; D -0.101; G 0.184; V -0.36
Y2: L 0.342; N 0.269; V -0.112; K 0.191; Q 0.161; R 0.211; S 0.116; I 0.298; E 0.347; P 0.102; A -0.03; C 0.039; D -0.03; H 0.156; M 0.161; F 0.351; G 0.165
P4: G -0.122; A -0.075; W -0.086; E -0.213; T -0.147; I -0.14; K 0.297; S 0.091; Q -0.043; N -0.036; R 0.076; F 0.264; D 0.354; Y -0.258; L 0.036; C 0.063; V -0.183; M 0.021; H -0.062
